These results are taken from article PMC10397247.

The target of assay [1] is T1, 4H2473-bH.
T1 chain: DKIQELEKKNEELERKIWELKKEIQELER
Nature of the assay: two-hybrid library CCNG1.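 Also: natural log of median RNA to DNA barcode read ratio; higher means stronger binding.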

For assay [2], the target named is T2, 4H2503-bH.
T2 chain: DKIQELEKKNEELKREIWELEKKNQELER
Nature of the assay: two-hybrid library CCNG1.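 Also: natural log of median RNA to DNA barcode read ratio; higher means stronger binding.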

The target in assay [3] is T3, 4H2588-bH.
T3 chain: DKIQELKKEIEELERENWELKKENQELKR
The assay is described as follows: two-hybrid library CCNG1.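 Also: natural log of median RNA to DNA barcode read ratio; higher means stronger binding.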

The target in assay [4] is T4, 4H2692-bH.
T4 chain: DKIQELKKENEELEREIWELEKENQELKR
The assay is described as follows: two-hybrid library CCNG1.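 Also: natural log of median RNA to DNA barcode read ratio; higher means stronger binding.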

For assay [5], the target named is T5, 4H2717-bH.
T5 chain: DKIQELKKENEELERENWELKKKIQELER
The assay is described as follows: two-hybrid library CCNG1.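 Also: natural log of median RNA to DNA barcode read ratio; higher means stronger binding.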

For assay [6], the target named is T6, 4H2839-bH.
T6 chain: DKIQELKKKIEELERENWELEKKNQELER
Nature of the assay: two-hybrid library CCNG1.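 Also: natural log of median RNA to DNA barcode read ratio; higher means stronger binding.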

The target of assay [7] is T7, 4H2915-bH.
T7 chain: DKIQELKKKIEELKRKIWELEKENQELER
Nature of the assay: two-hybrid library CCNG1.

Assay [8] addresses T8, 4H3057-bH.
T8 chain: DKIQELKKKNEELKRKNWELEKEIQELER
The assay is described as follows: two-hybrid library CCNG1.

Assay [9] has as its target T9, 4H319-bH.
T9 chain: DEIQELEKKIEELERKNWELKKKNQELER
The assay is described as follows: two-hybrid library CCNG1.

For assay [10], the target named is T10, 4H3277-bH.
T10 chain: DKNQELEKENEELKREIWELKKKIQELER
The assay is described as follows: two-hybrid library CCNG1.

The target of assay [11] is T11, 4H348-bH.
T11 chain: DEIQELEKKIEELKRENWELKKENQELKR
Nature of the assay: two-hybrid library CCNG1.

The target in assay [12] is T12, 4H40-bH.
T12 chain: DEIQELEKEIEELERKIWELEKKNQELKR
The assay is described as follows: two-hybrid library CCNG1.

The target in assay [13] is T13, 4H477-bH.
T13 chain: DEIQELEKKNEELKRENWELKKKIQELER
The assay is described as follows: two-hybrid library CCNG1.

The target in assay [14] is T14, 4H492-bH.
T14 chain: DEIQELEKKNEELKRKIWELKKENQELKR
The assay is described as follows: two-hybrid library CCNG1.

For assay [15], the target named is T15, 4H619-bH.
T15 chain: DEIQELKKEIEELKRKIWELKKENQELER
Nature of the assay: two-hybrid library CCNG1.

For assay [16], the target named is T16, 4H741-bH.
T16 chain: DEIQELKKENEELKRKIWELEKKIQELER
The assay is described as follows: two-hybrid library CCNG1.

The target of assay [17] is T17, 4H2721-AA.
T17 chain: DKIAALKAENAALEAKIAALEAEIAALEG
Nature of the assay: two-hybrid library CCmax.

Assay [18] deals with T18, 4H2750-AA.
T18 chain: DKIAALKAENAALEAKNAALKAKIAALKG
The assay is described as follows: two-hybrid library CCmax. To be noted: mean of both orientations.

Assay [19] deals with T19, 4H2898-AA.
T19 chain: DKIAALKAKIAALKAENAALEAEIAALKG
Nature of the assay: two-hybrid library CCmax. To be noted: mean of both orientations.

Assay [20] deals with T20, 4H3020-AA.
T20 chain: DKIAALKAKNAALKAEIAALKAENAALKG
Nature of the assay: two-hybrid library CCmax. The conditions noted are these: mean of both orientations.

Assay [21] deals with T21, 4H3365-AA.
T21 chain: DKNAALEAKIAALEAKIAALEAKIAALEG
Nature of the assay: two-hybrid library CCmax. The conditions noted are these: mean of both orientations.

For assay [22], the target named is T22, 4H355-AA.
T22 chain: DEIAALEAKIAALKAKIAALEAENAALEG
The assay is described as follows: two-hybrid library CCmax. To be noted: mean of both orientations.

The target in assay [23] is T23, 4H3651-AA.
T23 chain: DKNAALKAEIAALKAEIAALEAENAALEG
Nature of the assay: two-hybrid library CCmax. The conditions noted are these: mean of both orientations.

In assay [24] the target is T24, 4H3705-AA.
T24 chain: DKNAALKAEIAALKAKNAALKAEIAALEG
Nature of the assay: two-hybrid library CCmax. The conditions noted are these: mean of both orientations.

Assay [25] addresses T25, 4H3782-AA.
T25 chain: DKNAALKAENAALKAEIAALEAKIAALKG
The assay is described as follows: two-hybrid library CCmax. To be noted: mean of both orientations.

Assay [26] addresses T26, 4H465-AA.
T26 chain: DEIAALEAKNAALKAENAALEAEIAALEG
The assay is described as follows: two-hybrid library CCmax. The conditions noted are these: mean of both orientations.

The target of assay [27] is T27, 4H486-AA.
T27 chain: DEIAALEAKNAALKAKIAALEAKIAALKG
The assay is described as follows: two-hybrid library CCmax. The conditions noted are these: mean of both orientations.

Assay [28] addresses T28, 4H535-AA.
T28 chain: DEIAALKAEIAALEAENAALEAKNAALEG
The assay is described as follows: two-hybrid library CCmax. The conditions noted are these: mean of both orientations.

Assay [29] concerns the target T29, 4H58-AA.
T29 chain: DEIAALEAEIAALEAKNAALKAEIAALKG
The assay is described as follows: two-hybrid library CCmax. To be noted: mean of both orientations.

Assay [30] concerns the target T30, 4H895-AA.
T30 chain: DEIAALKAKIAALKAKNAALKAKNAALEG
The assay is described as follows: two-hybrid library CCmax. To be noted: mean of both orientations.

The target of assay [31] is T31, 4H_APH.
T31 chain: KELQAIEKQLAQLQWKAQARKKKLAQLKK
The assay is described as follows: two-hybrid library CCmax. To be noted: mean of both orientations.

For assay [32], the target named is T32, 4H_BCR.
T32 chain: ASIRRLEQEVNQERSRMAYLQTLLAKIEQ
The assay is described as follows: two-hybrid library CCmax. The conditions noted are these: mean of both orientations.

The target of assay [33] is 4H_GCN4. The assay is described as follows: two-hybrid library CCmax.
Chain of 4H_GCN4 (chain, as listed by the source): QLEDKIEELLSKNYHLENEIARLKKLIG
In assay [34] the target is GCN2_T. Nature of the assay: two-hybrid library CCmax. The conditions noted are these: mean of both orientations.

B1: 4H2473-bH (peptide)
chain: DKIQELEKKNEELERKIWELKKEIQELER
Regarding B1, the interaction score in [1] is 1.05; in assay [2], 0.0804; in assay [3], -0.165; in [4], 0.549; in [5] it was -0.241; in [6] it was -0.0772. For the same molecule, the interaction score was 0.134 in assay [7]; 0.309 in assay [8]; -1.01 in assay [9]; -0.651 in assay [10]; -0.545 in assay [11]; -0.286 in [12]. Also, the interaction score in [13] was -1.42; in assay [14], 0.0302; in assay [15], -2.35; in assay [16], -0.491.

B2: 4H2721-AA (peptide)
chain: DKIAALKAENAALEAKIAALEAEIAALEG
Regarding B2, the interaction score was 0.879 in assay [17]; 0.408 in [18]; 0.892 in [19]; -1.05 in assay [20]; -1.58 in assay [21]; -0.56 in [22]. Moreover, the interaction score in [23] is -1.51; in assay [24] it was 1.59; in [25] it was 1.73; in assay [26], -0.696; in assay [27], 2.11; in [28], -1.55. Further, the interaction score in [29] was 0.0667; in assay [30] it was -1.62; in assay [31] it was -2.01; in assay [32] it was -1.38; in [33] it was -1.31; in assay [34], -0.835.
